Measurements from the nanobody polyreactivity screen of Harvey et al. (2022).

Assay: yeast display, Sf9 membrane polyspecificity reagent, FACS + sequencing; frameworks hold sequencing errors
Summary of the method: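 Polyreactivity labels are assigned by the sorting gate from which each nanobody was recovered. The gates were low and high (top ~1%), set on anti-HA fluorescence for expression and streptavidin fluorescence for reagent binding. Before sorting, galactose-induced (36–48 hours) yeast display cells were stained for 1 hour at 4 °C with 10% biotinylated, detergent-solubilized Sf9 membrane reagent.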

Sequence | polyreactivity (PSR sort gate)
QVQLVESGGGLVQAGGSLRLSCAASGRTFWSYAMGWYRQAPGKERELVAAINSSGDSTYYADSVKGRFTISRDNAKNTVYLQMNSLKPEDTAVYYCAADGGLLAGSDATVRMDYWGQGTQVTVSS | low polyreactivity
QVQLVESGGGLVQAGGSLRLSCAASGRTFWSYAMGWYRQAPGKVRELVAAITSSGGTTNYADSVKGRFTISRDNAKNTVYLQMNSLKPEDTAVYYCAADNGGAGYYYGYVWYDYWGQGTQVTVSS | low polyreactivity
QVQLVESGGGLVQAGGSLRLSCAASGRTFWTYTLGWYRQAPGKEREFVAAITFGDGSTSYADSVKGRFTISRDNAKNTVYLQMNSLKPEDTAVYYCAAADQVGQEDDYWGQGTQVTVSS | low polyreactivity
QVQLVESGGGLVQAGGSLRLSCAASGRTFWTYTMGWYRQAPGKEREFVAAITFGDGSTSYADSVKGRFTISRDNAKNTVYFQMNSLKPEDTAVYYCAKRWRRRFVDVWSLYDYWGQGTQVTVSS | low polyreactivity
QVQLVESGGGLVQAGGSLRLSCAASGRTFWVYAMGRYRQAPGKEREFVAAISSNGDRTYYADSVKGRFTISRDNAKNTVYLQMNSLKPEDTAVYYCNSRKQYRYLADRMDYWGQGTQVTVSS | high polyreactivity
QVQLVESGGGLVQAGGSLRLSCAASGRTFWWYAMGWYRQAPGKERELVATINVSGGSTYYADSVKGRFTISRDNAKNTVYFQINSLKPEDTAVYYCNKRGFYTPSVSYDYWGQGTQVTVSS | low polyreactivity
QVQLVESGGGLVQAGGSLRLSCAASGRTFWYYTMGWYRQAPGKERELVASITYRGGSTYYADSVKGRFTISRDNAKNTVYLQMNSLKPEDTAVYYCNARSGNRYGPRYDYWGQGTQVTVSS | high polyreactivity
QVQLVESGGGLVQAGGSLRLSCAASGRTFYANAMGWYRQAPGKERELVAAISTGGDGTYYADSVKGRFTISRDNAKNTVYLQMNSLKPEDTAVYYCAVRHRASGILYDYWGQGTQVTVSS | low polyreactivity
QVQLVESGGGLVQAGGSLRLSCAASGRTFYAYAMGWYRQAPGKERELVAAISWRGGDTYYADSVKGRFTISRDNAKNTVELQMNSLKPEDTAVYYCAKDLSRQSGDGEYDYWGQGTQVTVSS | low polyreactivity
QVQLVESGGGLVQAGGSLRLSCAASGRTFYAYAMGWYRQAPGKERELVASISDRGGSTYYADSVKGRFTISRDNAKNTVYVQMNSLKPEDTAVYYCAAEYRTQRWFGSWGQGTQVTVSS | high polyreactivity
QVQLVESGGGLVQAGGSLRLSCAASGRTFYAYTRGWYRQAPGKERELVAAISSSGTRTYYADSVKGRFTISRDNAKNTVYLQMNSLKPEDTAVYDCAKGTQRFRGLDHGYDYWGQGTQVTVSS | high polyreactivity
QVQLVESGGGLVQAGGSLRLSCAASGRTFYDNAMGWYRQAPGKERELVAAISWSGGSTYADSVKGRFTISRDNAKNTVYLQMNSLKPEDTAVYYCNADAWLASGYRYDYWGQGTQVTVSS | low polyreactivity
QVQLVESGGGLVQAGGSLRLSCAASGRTFYDNAMGWYRQAPGKERELVAVISTSGARTYYADSVKGRFTISRDNAKNTVYLQMNSLKPEDTAVYYCAARRYKYSWDSGYDLYYWGQGTQVTVSS | high polyreactivity
QVQLVESGGGLVQAGGSLRLSCAASGRTFYDNVMGWYRQAPGKERELVAAISSGGSTNYADSVKGRFTISRDNAKNTVYLQMNSLIPEDTAVYYCATNGGGGWAYEYWGQGTQVTVSS | low polyreactivity
QVQLVESGGGLVQAGGSLRLSCAASGRTFYDYAMGWYRQAPGKERELVAAISRRAGSTYYADSVKGRFTISRDNAKNTVYLQMNSLKPEDTAVYYCAAAYYRRWWRGHHYAFDYWGQGTQVTVSS | high polyreactivity
QVQLVESGGGLVQAGGSLRLSCAASGRTFYFNGMGWYRQAPGKERELVATITASGTITYYADSVKGRFTISRDNAKNTVYLQLNSLKPEDTAVYYCAARQRGYYYSRRYDYWGQGTQVTVTS | high polyreactivity
QVQLVESGGGLVQAGGSLRLSCAASGRTFYFNGMGWYRQAPGKERELVATITASGTITYYADSVKGRFTISRDNAKNTVYLQMNSLKPEDTAVYYCAARQRGYYYSRSYDYWGQGTQVTVSS | high polyreactivity
QVQLVESGGGLVQAGGSLRLSCAASGRTFYFYTLGWYRPAPGKERELVAAITSGGSTNYADSVKGRFTISRDNAKNTVYLQMNSLIPEDTAVYYCAAKYYRVYGYGLRMYYWGQGTQVTVSS | high polyreactivity
QVQLVESGGGLVQAGGSLRLSCAASGRTFYFYVMGWYRQAPGKERELVARISWSGGSTYYADSVKGRFTISRDNAKNTVYLQMNSLKPEDTAVYYCARQYKYPSSGEYDSWGQGTQVSVSS | low polyreactivity
QVQLVESGGGLVQAGGSLRLSCAASGRTFYGNVMGWYRQAPGKERELVATISYSAGSTYYADSVKGRFTISRDNAKNTVYFQMNSLKPEDTAVYYCAAAGYVYHWAPRGSRYYYWGQGTQVTVSS | low polyreactivity
QVQLVESGGGLVQAGGSLRLSCAASGRTFYGYAMGRYRQAPGKERELVAAISSGGSTYYADSVKGRFTISRDNAKNTVYLQMNSLKPEDTAVYDCAAVKWRRHGGSSEYDYWGQGTQVTVSS | high polyreactivity
QVQLVESGGGLVQAGGSLRLSCAASGRTFYGYAMGWYRQAPGKERELVAAISRSGGRTYYADSVKGRFTISRDNAKNTVYLQMNSLKPEDTAVYYCAAYSVYASPDDYWGQGTQVTVSS | high polyreactivity

Sequence | polyreactivity (PSR sort gate)
QVQLVESGGGLVQAGGSLRLSCAASGRTFYGYAMGWYRQAPGKERELVAGITSRVGSTYYADSVKGRFTISRDNAKNTVYLQMNSLKPEDTAVYYCAADRYAVRSYHYDYWGQGTQVTVSS | low polyreactivity
QVQLVESGGGLVQAGGSLRLSCAASGRTFYGYGMGWFRQAPGTDRELVAAIRVGGGSTYYADSVKGRFTISRDNAKNTVYLQMNILKPEDTAVYYCASAIYHYRQKDGYWGQGTQVTVSS | high polyreactivity
QVQLVESGGGLVQAGGSLRLSCAASGRTFYGYTMGWYRQAPGKERELVAAISWTGGRTYYADSVKGRFTISRDNAKNTVYLQMNSLKPEDTAVYYCAARRYQSEDVPYGYWGQGTQVTVSS | high polyreactivity
QVQLVESGGGLVQAGGSLRLSCAASGRTFYHYAMGLYRQAPGKERELVAALNRVGGTNYADSVKGRFTISRDNAKNTVYLQMNSLKPEDTAVYYCNADIVARSSYSTKYEEFYYWGLGTQVTVSS | low polyreactivity
QVQLVESGGGLVQAGGSLRLSCAASGRTFYHYTMGWSSQAPGKERELVARITRRVGSTYYADSVKGRFTISRDNTKNTVYLQMNSLKPEDTAVYYCNAKSGVYRYLLDYWGQGTQVTVTS | high polyreactivity
QVQLVESGGGLVQAGGSLRLSCAASGRTFYHYTMGWYRQAPGKERELVARITRRVGSTYYADSVKGRFTISRDNAKNTVYLQMNSLKPEDTAVYYCNDKSGLYRYLLDYWGQGTQVTVSS | high polyreactivity
QVQLVESGGGLVQAGGSLRLSCAASGRTFYINAMGWYRQAPGKERELVAAITWSGGRTYYADSVKGRFTISRDNAKNTVYLQMNSLKPEDTAVYYCNTRSYSYYVPYRYDYWGQGSQVTVSS | high polyreactivity
QVQLVESGGGLVQAGGSLRLSCAASGRTFYIYAMGWYRQAPGKERELVAAITRIDGSTYYADSVKGRFTISRDNAKNTVYLQMNSLKPEDTAVYYCAAEYGPGLTEGLYYYWGQGTQVTVSS | high polyreactivity
QVQLVESGGGLVQAGGSLRLSCAASGRTFYIYAMGWYRQAPGKERELVADITSGGSTYYADSVKGRFTISRDNAKNTVYLQMNSLKPDDTAVYYCAADWVTFYSYTEYDYWGQGSQVTVSS | low polyreactivity
QVQLVESGGGLVQAGGSLRLSCAASGRTFYIYAMGWYRQAPGKERELVARITTGGRTNYADSVKGRFTISRDNAKNTVYLQMNSLKPEDTAVYYCATQYRGRQRKYDYWGQGTQVTVSS | high polyreactivity
QVQLVESGGGLVQAGGSLRLSCAASGRTFYIYAMGWYRQAPGKERELVATIDSTGSTNYADSVKGRFTISRDNAKNTVYLQMNSLKPEDTAVYYCNADDWVGRSLRYDYWGQGTQVTVSS | low polyreactivity
QVQLVESGGGLVQAGGSLRLSCAASGRTFYIYTMGWYRQAPGKERELVATAITSGGITYYADSVKGRFTISRDNAKNTVYLQMNSLKPEDTAVYYCAADDYYGYYGFNYWGQGTQVTVSS | low polyreactivity
QVQLVESGGGLVQAGGSLRLSCAASGRTFYKNTMGWYRQAPGKERELVATIYQRGGSTYYADSVKGRFTISRDNAKNTVYLQMNSLKREDTAVYYCNARKYTQSIHYDYWGQGTQVTVSS | high polyreactivity
QVQLVESGGGLVQAGGSLRLSCAASGRTFYKYAMGWYRQAPGKERELVAAISGGGTTNYADSVKGRFTISRDNAKNTVYLQMNSLKPEDTAVYYCNAARTRWATGYDYWGQGTQVTVSS | low polyreactivity
QVQLVESGGGLVQAGGSLRLSCAASGRTFYKYGRGWYRQAPRKERELVASISSGGNTYYADSVKGRFTISRDNAKHTVYLQMNSLKPDASAVFYCAAVNYWPFYYYVYGYWGQGTQVTVSS | high polyreactivity
QVQLVESGGGLVQAGGSLRLSCAASGRTFYLYAMGWYRQAPGKERELVAAITKSGGSTYYADSVKGRFTISRDNAKNTVYLQMNSLKPEDTAVYYCATDGRWRLAGAFTGKRRTYDYWGQGTQVTVSS | low polyreactivity
QVQLVESGGGLVQAGGSLRLSCAASGRTFYLYAMGWYRQAPGKERELVDTITESVGNTYYADSVKGRFTISRDNAKNTVYLQMNSLKPEDTAVYYCAATYKYYLYQPKTLFREGDYWGQGTQVTVSS | low polyreactivity
QVQLVESGGGLVQAGGSLRLSCAASGRTFYLYAMGWYRQAPGTERELVADITSGGSTYYADSVKGRFTISRDNAKNTVYLQMNSLKPEDTAVYYCAADWVTFYSYTEYDYWGQGTQVTVSS | low polyreactivity
QVQLVESGGGLVQAGGSLRLSCAASGRTFYLYGMGWYRQAHGKETELVAAITLSDGSTYYADSVKGRFTISRDNAKNTVYLQMNSLKPEDTAVYYCAARDYPFPYAMNYWGQGTQVTVSS | low polyreactivity
QVQLVESGGGLVQAGGSLRLSCAASGRTFYNAMGWYIQAPGKERELVAAITTGGGTKYADSVKGRFTISRDNAKNTVYLQMHSLQPEDTAVYYCNTDAWYHFYHGAHKFDYWGQGTQVTVSS | low polyreactivity
QVQLVESGGGLVQAGGSLRLSCAASGRTFYNAMGWYRPAPGKERELVAAISGSGGSTYYADSVKGRFTISRDNAKNTVYLKMNSLKPEDTAVYYCAARSVWWQVSQGNYWGQGTQVTVSS | low polyreactivity
